For 1 substance, KM of hydrolysis of the ACC-labeled substrate (release of ACC), kcat of hydrolysis of the ACC-labeled substrate and kcat/KM of hydrolysis of the ACC-labeled substrate results are on record in article PMC7477763.

Assay [1] concerns the target human UCH-L3, recombinant (human) (UniProt P15374).
For assay [2], the target named is Middle East respiratory syndrome papain-like protease (MERS PLpro), recombinant (Middle East respiratory syndrome coronavirus).

Sequence of UniProt P15374 (P15374 whole entry): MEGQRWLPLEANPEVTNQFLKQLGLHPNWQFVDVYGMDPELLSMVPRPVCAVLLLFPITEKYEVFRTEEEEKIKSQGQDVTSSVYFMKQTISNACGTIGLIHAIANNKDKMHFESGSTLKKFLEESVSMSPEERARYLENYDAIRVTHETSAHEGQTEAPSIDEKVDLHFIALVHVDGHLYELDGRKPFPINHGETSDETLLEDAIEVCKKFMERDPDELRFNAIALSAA

As for “Ub-ACC (ubiquitin with C-terminal ACC fluorophore) (from UniProt P0CG48 1-76)”, in assay [1], the KM of hydrolysis of the ACC-labeled substrate (release of ACC) is 0.048 µM and the kcat of hydrolysis of the ACC-labeled substrate was determined as 0.107 s^–1. In assay [2], the KM of hydrolysis of the ACC-labeled substrate (release of ACC) was 3.55 µM, the kcat of hydrolysis of the ACC-labeled substrate is 3.68 s^–1 and the kcat/KM of hydrolysis of the ACC-labeled substrate was determined as 1e+06 M^–1 s^–1.
